This is an account of results in PMC9456107, “DNA Motifs and an Accessory CRISPR Factor Determine Cas1 Binding and Integration Activity in Sulfolobus islandicus”.

In one data set the target is T1, PfuCas1 (Pyrococcus furiosus COM1, UniProt I6TWX9 1-322).
T1 sequence: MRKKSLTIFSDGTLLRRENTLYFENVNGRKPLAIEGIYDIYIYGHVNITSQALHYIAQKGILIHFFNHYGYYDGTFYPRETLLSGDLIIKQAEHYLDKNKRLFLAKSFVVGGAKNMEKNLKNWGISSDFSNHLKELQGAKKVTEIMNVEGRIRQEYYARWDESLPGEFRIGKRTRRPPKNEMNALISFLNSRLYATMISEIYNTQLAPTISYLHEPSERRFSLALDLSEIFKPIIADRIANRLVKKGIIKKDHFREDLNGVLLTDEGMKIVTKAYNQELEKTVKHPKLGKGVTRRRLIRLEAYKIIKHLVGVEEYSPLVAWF
The experiment in a line: EMSA; EMSA on 12% native PAGE, 0.3 uM FAM probe (0.5 uM P1 in Fig S3); buffer, pH and temperature not stated (refers to earlier work). Particulars: protein: recombinant, tags: C-terminal His, chain copies: 2, label: 5'-FAM.

In another data set the target is T2, Cas2 (SisCas2) (Sulfolobus islandicus REY15A, UniProt F0NH44 1-89).
T2 sequence: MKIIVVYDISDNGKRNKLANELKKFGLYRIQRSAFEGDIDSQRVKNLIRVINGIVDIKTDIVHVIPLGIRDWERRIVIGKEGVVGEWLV
The experiment in a line: EMSA; 3.3 and 6.7 uM Cas2; EMSA on 12% native PAGE, 0.3 uM FAM probe (0.5 uM P1 in Fig S3); buffer, pH and temperature not stated (refers to earlier work). To be noted: protein: recombinant; tags: C-terminal His; chain copies: 2; label: 5'-FAM on sense strand; mixture of blunt duplex, ssDNA and hairpin. On the technique in general: Mobility shift assays separate free from complexed probe on a gel.

B1: Pfu-WT leader-repeat ssDNA (structured_DNA)
DNA: CTCCGTAGGAGGATTGGGGCAAAAAAGCCCCCTGTTCCAATAAGACTACAAAAGAATTGAAAG
Take B1: the binding result with PfuCas1 (hairpin) is “binds”.

As for TCCTCCACTTTCCCCGTAAGGGGTCGGAGGGGGCGGTCTTTCCC (structured_DNA) [Syn-S leader ssDNA], the binding result with PfuCas1 (two predicted hairpins) is given as “binds”.

B2: leader-proximal WT S/A annealed probe (5:1 or unspecified ratio, contains hairpin ssDNA) (mixed)
DNA 1: CAAATAGAGGGTTAAAAAACCCTCAGCTAATC
DNA 2: GATTAGCTGAGGGTTTTTTAACCCTCTATTTG
B2: in the data set with Cas2 (SisCas2), the binding result is recorded as “no binding”.
